Key:
trypsin = trypsin (Sus scrofa, UniProt P00761); assay: Trypsin digestion resistance of soluble peptide, RP-HPLC; type: in vitro ADME, porcine; set-up: purchased Sigma Aldrich 6567; details: 500 U/ml trypsin, 30 minutes at 37.5° C.; HPLC peak vs untreated peptide
Procedure, shortened: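 Read-out was RP-HPLC (C-18, water/acetonitrile with 0.1% TFA, 5-45% over 10 min) of peptide left after trypsin treatment. Digest: 12.5 μg peptide, 500 U/ml porcine trypsin, PBS, 37.5° C for 30 min, stopped by soybean trypsin inhibitor; samples then reduced (10 mM DTT) or left non-reduced.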

pepsin = pepsin (Sus scrofa, UniProt P00791); assay: Pepsin digestion resistance in simulated gastric fluid, RP-HPLC; type: in vitro ADME, porcine; set-up: purchased Sigma Aldrich P7012; details: 500 U/ml pepsin in SGF pH 1.05, 30 minutes at 37.5° C.; HPLC peak vs untreated peptide
Chain of pepsin (P00791 60-385): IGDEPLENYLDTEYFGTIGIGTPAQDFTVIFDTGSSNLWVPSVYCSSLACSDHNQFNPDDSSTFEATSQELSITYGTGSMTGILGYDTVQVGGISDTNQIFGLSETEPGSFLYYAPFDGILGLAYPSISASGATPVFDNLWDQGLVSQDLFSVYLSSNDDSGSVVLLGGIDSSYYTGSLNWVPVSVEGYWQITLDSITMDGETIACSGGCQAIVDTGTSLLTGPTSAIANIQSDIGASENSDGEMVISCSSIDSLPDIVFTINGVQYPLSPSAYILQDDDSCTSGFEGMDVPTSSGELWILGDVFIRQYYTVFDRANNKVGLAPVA
Procedure, shortened: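 Digestion resistance read by reversed-phase HPLC (C-18, 0.1% TFA, 5–45% acetonitrile over 10 min; 214/280 nm) after 12.5 μg peptide spent 30 min at 37.5 °C in pH 1.05 simulated gastric fluid, with or without 500 U/ml pepsin. Some samples quenched with Tris base and DTT.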

[1] = Resistance to elevated temperature, HPLC; type: physicochemical; details: HPLC peak vs untreated peptide; for Resistance to Temperature (75° C.): 75° C. for one hour; for Resistance to Temperature (100° C.): 100° C. for one hour
Procedure, shortened: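 Peptides were incubated at room temperature, 70° C or 100° C for one hour in ddH2O; another protocol used 70° C, 75° C or 100° C for one hour in 0.5 mM PBS, then pelleting and analysis of the supernatant. Remaining peptide was measured by C-18 RP-HPLC, 5–45% acetonitrile/0.1% TFA over 10 min.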

[2] = Resistance to reduction by DTT, RP-HPLC; type: physicochemical; details: 10 mM DTT in PBS, room temperature, 30 minutes; HPLC peak vs untreated peptide
Procedure, shortened: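 Peptide (12.5 μg from a 2 mg/ml stock, or 0.015 mM final in PBS) was held 30 min at room temperature with or without 10 mM DTT. Reduced and non-reduced forms were compared by C-18 RP-HPLC using a 5–45% acetonitrile/0.1% TFA gradient over 10 min, with detection at 214 and 280 nm.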

Chain of trypsin (P00761 9-231): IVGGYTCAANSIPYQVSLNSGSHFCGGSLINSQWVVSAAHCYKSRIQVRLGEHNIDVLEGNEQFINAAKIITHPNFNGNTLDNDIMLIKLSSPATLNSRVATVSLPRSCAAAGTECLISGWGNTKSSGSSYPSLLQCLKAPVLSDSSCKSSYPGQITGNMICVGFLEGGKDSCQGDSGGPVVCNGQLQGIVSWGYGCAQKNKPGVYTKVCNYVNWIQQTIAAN

Row | Substance | Resistance to Trypsin (500 U/ml) (trypsin) | Resistance to Pepsin (500 U/ml) (pepsin) | Resistance to Temperature (75° C.) [1] | Resistance to Temperature (100° C.) [1] | Resistance to DTT Reduction (10 mM) [2] | Resistance to Temperature (70° C.) ([1]; 70° C. for one hour)
1 | 47 (GSAQEPVKGPVSTKPGSCPIILIRCAMLNPPNRCLKDTDCPGIKKCCEGSCGMACFVPQ) [compound 47] | Low (A peptide classified as low indicates that the majority (over 75%) of the HPLC peak of the treated peptide disappeared as compared to the HPLC peak of the untreated peptide) | Low (A peptide classified as low indicates that the majority (over 75%) of the HPLC peak of the treated peptide disappeared as compared to the HPLC peak of the untreated peptide) | High (A peptide classified as high indicates that the majority (at least 75%) of the HPLC peak of the treated peptide is still present as compared to the HPLC peak of the untreated peptide) | Low (A peptide classified as low indicates that the majority (over 75%) of the HPLC peak of the treated peptide disappeared as compared to the HPLC peak of the untreated peptide) | Low (A peptide classified as low indicates that the majority (over 75%) of the HPLC peak of the treated peptide disappeared as compared to the HPLC peak of the untreated peptide) | 
2 | 19 (GSQDKCKKVYENYPVSKCQLANQCNYDCKLDKHARSGECFYDEKRNLQCICDYCEY) [compound 19] | High (A peptide classified as high indicates that the majority (at least 75%) of the HPLC peak of the treated peptide is still present as compared to the HPLC peak of the untreated peptide) | High (A peptide classified as high indicates that the majority (at least 75%) of the HPLC peak of the treated peptide is still present as compared to the HPLC peak of the untreated peptide) | High (A peptide classified as high indicates that the majority (at least 75%) of the HPLC peak of the treated peptide is still present as compared to the HPLC peak of the untreated peptide) | Moderate (A peptide classified as medium indicates that about half (between 25% and 75%) of the HPLC peak of the treated peptide disappeared as compared to the HPLC peak of the untreated peptide) | Low (A peptide classified as low indicates that the majority (over 75%) of the HPLC peak of the treated peptide disappeared as compared to the HPLC peak of the untreated peptide) | 
3 | 23 (GSEVIRCSGSKQCYGPCKQQTGCTNSKCMNKVCKCYGCG) [compound 23] | Low (A peptide classified as low indicates that the majority (over 75%) of the HPLC peak of the treated peptide disappeared as compared to the HPLC peak of the untreated peptide) | High (A peptide classified as high indicates that the majority (at least 75%) of the HPLC peak of the treated peptide is still present as compared to the HPLC peak of the untreated peptide) | High (A peptide classified as high indicates that the majority (at least 75%) of the HPLC peak of the treated peptide is still present as compared to the HPLC peak of the untreated peptide) | Low (A peptide classified as low indicates that the majority (over 75%) of the HPLC peak of the treated peptide disappeared as compared to the HPLC peak of the untreated peptide) | Low (A peptide classified as low indicates that the majority (over 75%) of the HPLC peak of the treated peptide disappeared as compared to the HPLC peak of the untreated peptide) | 
4 | 7 (GSDRDSCIDKSRCSKYGYYQECQDCCKKAGHNGGTCMFFKCKCA) [compound 7] | Low (A peptide classified as low indicates that the majority (over 75%) of the HPLC peak of the treated peptide disappeared as compared to the HPLC peak of the untreated peptide) | High (A peptide classified as high indicates that the majority (at least 75%) of the HPLC peak of the treated peptide is still present as compared to the HPLC peak of the untreated peptide) | High (A peptide classified as high indicates that the majority (at least 75%) of the HPLC peak of the treated peptide is still present as compared to the HPLC peak of the untreated peptide) | High (A peptide classified as high indicates that the majority (at least 75%) of the HPLC peak of the treated peptide is still present as compared to the HPLC peak of the untreated peptide) | Low (A peptide classified as low indicates that the majority (over 75%) of the HPLC peak of the treated peptide disappeared as compared to the HPLC peak of the untreated peptide) | 
5 | 9 (GSQFCGTNGKPCVNGQCCGALRCVVTYHYADGVCLKMNP) [compound 9] | Moderate (A peptide classified as medium indicates that about half (between 25% and 75%) of the HPLC peak of the treated peptide disappeared as compared to the HPLC peak of the untreated peptide) | High (A peptide classified as high indicates that the majority (at least 75%) of the HPLC peak of the treated peptide is still present as compared to the HPLC peak of the untreated peptide) | High (A peptide classified as high indicates that the majority (at least 75%) of the HPLC peak of the treated peptide is still present as compared to the HPLC peak of the untreated peptide) | Low (A peptide classified as low indicates that the majority (over 75%) of the HPLC peak of the treated peptide disappeared as compared to the HPLC peak of the untreated peptide) | Low (A peptide classified as low indicates that the majority (over 75%) of the HPLC peak of the treated peptide disappeared as compared to the HPLC peak of the untreated peptide) | 
6 | 50 (GSLFCKGGSCHFGGCPSHLIKVGSCFGFRSCCKWPWNA) [compound 50] | Low (A peptide classified as low indicates that the majority (over 75%) of the HPLC peak of the treated peptide disappeared as compared to the HPLC peak of the untreated peptide) | Low (A peptide classified as low indicates that the majority (over 75%) of the HPLC peak of the treated peptide disappeared as compared to the HPLC peak of the untreated peptide) | High (A peptide classified as high indicates that the majority (at least 75%) of the HPLC peak of the treated peptide is still present as compared to the HPLC peak of the untreated peptide) | Low (A peptide classified as low indicates that the majority (over 75%) of the HPLC peak of the treated peptide disappeared as compared to the HPLC peak of the untreated peptide) | Low (A peptide classified as low indicates that the majority (over 75%) of the HPLC peak of the treated peptide disappeared as compared to the HPLC peak of the untreated peptide) | 
7 | 32 (GSSCAKPRENCNRMNILCCRGECVCPTFGDCFCYGD) [compound 32] | Low (A peptide classified as low indicates that the majority (over 75%) of the HPLC peak of the treated peptide disappeared as compared to the HPLC peak of the untreated peptide) | High (A peptide classified as high indicates that the majority (at least 75%) of the HPLC peak of the treated peptide is still present as compared to the HPLC peak of the untreated peptide) | High (A peptide classified as high indicates that the majority (at least 75%) of the HPLC peak of the treated peptide is still present as compared to the HPLC peak of the untreated peptide) | High (A peptide classified as high indicates that the majority (at least 75%) of the HPLC peak of the treated peptide is still present as compared to the HPLC peak of the untreated peptide) | Low (A peptide classified as low indicates that the majority (over 75%) of the HPLC peak of the treated peptide disappeared as compared to the HPLC peak of the untreated peptide) | High (A peptide classified as high indicates that the majority (at least 75%) of the HPLC peak of the treated peptide is still present as compared to the HPLC peak of the untreated peptide)
8 | 4 (GSGDCLPHLKRCKENNDCCSKKCKRRGANPEKRCR) [compound 4] | Low (A peptide classified as low indicates that the majority (over 75%) of the HPLC peak of the treated peptide disappeared as compared to the HPLC peak of the untreated peptide) | High (A peptide classified as high indicates that the majority (at least 75%) of the HPLC peak of the treated peptide is still present as compared to the HPLC peak of the untreated peptide) | High (A peptide classified as high indicates that the majority (at least 75%) of the HPLC peak of the treated peptide is still present as compared to the HPLC peak of the untreated peptide) | Low (A peptide classified as low indicates that the majority (over 75%) of the HPLC peak of the treated peptide disappeared as compared to the HPLC peak of the untreated peptide) | Low (A peptide classified as low indicates that the majority (over 75%) of the HPLC peak of the treated peptide disappeared as compared to the HPLC peak of the untreated peptide) | 

Source: patent publication US20190375786A1, “STABLE PEPTIDES AND METHODS OF USE THEREOF” (Fred Hutchinson Cancer Research Center, priority 2016, published 2019)
